From patent publication US20130183306A1 (INTERNATIONAL DRUG DEVELOPMENT BIOTECH, published 2013)

Biological target: T1, human complement C1q (from natural human complement serum) (human, UniProt P02745 23-245; P02746 28-253; P02747 29-245)
T1 construct: Whole human complement serum was added to the coated MAb; also called complement human serum
Test: ELISA, MAb coated on the plate, natural human complement added, detection with anti-human C1q peroxidase conjugate
Method: The binding of human complement serum to MAbs was assessed by an ELISA binding assay. The 96-well plates (Nunc) were coated overnight at 4° C. with varying MAb concentrations. After washing, the plates were blocked with PBS-5% BSA for 1 h, and incubated for 1 h with 2.5 μl/well of natural human complement (Sigma). Then, 100 μl/well of a 1/500 dilution of sheep anti-human C1q peroxidase-conjugated Ab (Abd Serotec) added and incubated for 1h. The plates were developed with 100 μl per well of TMB substrate (Uptima Interchim). After H₂SO₄ addition, the OD was measured at 450 nm/630 nm using a MRX II microplate reader. Data represent mean+/−SD of two independent experiments.

T1 sequence (P02745 23-245 limits assumed, chain 1 of 3): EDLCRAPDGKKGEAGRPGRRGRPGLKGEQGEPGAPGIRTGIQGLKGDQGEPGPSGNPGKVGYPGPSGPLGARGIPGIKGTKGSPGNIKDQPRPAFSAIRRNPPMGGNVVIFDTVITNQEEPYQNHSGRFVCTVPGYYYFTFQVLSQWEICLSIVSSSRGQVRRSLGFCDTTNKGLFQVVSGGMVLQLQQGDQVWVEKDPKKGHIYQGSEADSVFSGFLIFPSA
T1 sequence (P02746 28-253 limits assumed, chain 2 of 3): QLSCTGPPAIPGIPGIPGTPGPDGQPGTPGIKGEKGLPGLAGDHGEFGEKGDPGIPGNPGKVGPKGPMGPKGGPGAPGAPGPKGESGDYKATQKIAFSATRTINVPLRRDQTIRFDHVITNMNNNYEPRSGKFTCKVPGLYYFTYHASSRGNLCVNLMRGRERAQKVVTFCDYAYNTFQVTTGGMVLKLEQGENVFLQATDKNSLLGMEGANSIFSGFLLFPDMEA
T1 sequence (P02747 29-245 limits assumed, chain 3 of 3): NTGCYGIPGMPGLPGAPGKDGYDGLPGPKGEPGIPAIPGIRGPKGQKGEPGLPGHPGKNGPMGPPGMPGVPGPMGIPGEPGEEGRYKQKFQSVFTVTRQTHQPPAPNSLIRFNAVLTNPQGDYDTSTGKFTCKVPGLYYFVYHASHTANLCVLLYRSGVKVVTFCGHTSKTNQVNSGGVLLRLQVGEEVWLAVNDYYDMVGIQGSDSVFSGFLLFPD

B1: chR005-1 Fc24 (antibody, human IgG1, name in EU numbering)
heavy: QVQLQQSGAELVRPGSSVKISCKASGYAFSSYWVNWMKQRPGQGLEWIGQIYPGDGDTNYNGKFKGRATVTADKSSSTSYMQFSSLTSEDSAVYFCARSITTVVGCAMDYWGQGTSVTVSSASTKGPSVFPLAPSSKSTSGGTAALGCLVKDYFPEPVTVSWNSGALTSGVHTFPAVLQSSGLYSLSSVVTVPSSSLGTQTYICNVNHKPSNTKVDKKVEPKSCDKTHTCPPCPAPELLGGPSVFLLPPKPKDTLMISRTPEVTCVVVDVSHEDPEVKFNWYVDGVEVHNAKTKPPEEQYNSTLRVVSLLTVLHQDWLNGKEYKCKVSNAALPAPIAKTISKAKGQPREPQVYTLPPSRDELTKNQVSLTCLVKGFYPSDIAVEWESNGQPENNYKTTPLVLDSDGSFFLYSKLTVDKSRWQQGNVFSCSVMHEALHNHYTQKSLSLSPGK
light: DIQMTQSSAYLSVSLGGRVTITCKASDHINNWLAWYQHKPGNAPRLLISGATTLETGVPSRFSGSGSGKDYTLSITSLQTEDVATYYCQQSWNTPWTFGGGTK
notes: also called chR005-1 MAb Fc24 optimized variant; not shown: human light chain constant region
binding result: binds
